The values below come from US20190300590A1 (PROTAGONIST THERAPEUTICS, published 2019).

One may read the IC50 as the point on the concentration scale where inhibition reaches its midpoint. High values mean weaker potency, low ones greater potency.

The labels stand for the following.
T1: IL-23R on DB cells (human, UniProt Q5VWK5 24-629)
T1 sequence (looked up): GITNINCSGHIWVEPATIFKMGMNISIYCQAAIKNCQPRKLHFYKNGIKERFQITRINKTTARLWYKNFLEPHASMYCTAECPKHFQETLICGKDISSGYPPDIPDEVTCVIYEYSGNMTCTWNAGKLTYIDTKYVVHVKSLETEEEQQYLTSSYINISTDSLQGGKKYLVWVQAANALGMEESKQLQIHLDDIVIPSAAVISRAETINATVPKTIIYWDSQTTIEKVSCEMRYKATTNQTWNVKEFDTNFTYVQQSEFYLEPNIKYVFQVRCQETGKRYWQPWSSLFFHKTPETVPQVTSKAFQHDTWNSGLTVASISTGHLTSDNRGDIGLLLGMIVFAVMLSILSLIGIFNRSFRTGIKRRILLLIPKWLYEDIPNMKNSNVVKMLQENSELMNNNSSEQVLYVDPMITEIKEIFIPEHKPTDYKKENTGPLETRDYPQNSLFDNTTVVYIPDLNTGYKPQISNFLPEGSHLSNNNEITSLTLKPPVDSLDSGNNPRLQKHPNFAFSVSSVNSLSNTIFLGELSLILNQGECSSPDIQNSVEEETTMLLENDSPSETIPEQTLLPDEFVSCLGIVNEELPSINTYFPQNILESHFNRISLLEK

T2: IL23R_huFC (human, UniProt Q5VWK5 24-353)
T2 sequence (looked up): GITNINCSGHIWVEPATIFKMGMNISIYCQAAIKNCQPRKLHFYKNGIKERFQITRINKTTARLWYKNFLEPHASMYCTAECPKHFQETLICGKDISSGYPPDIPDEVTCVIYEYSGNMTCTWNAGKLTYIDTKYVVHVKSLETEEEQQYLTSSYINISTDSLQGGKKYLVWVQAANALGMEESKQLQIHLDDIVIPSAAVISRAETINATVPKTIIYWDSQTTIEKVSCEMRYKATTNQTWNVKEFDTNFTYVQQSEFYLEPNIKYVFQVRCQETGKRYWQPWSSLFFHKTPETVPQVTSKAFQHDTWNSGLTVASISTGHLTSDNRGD

B1: Ac-[Pen]-NTWQ-[Pen]-[Phe(4-OMe)]-[2-Nal]-[hLeu]-[Lys(Ac)]-N-[βAla]-NH2 (peptide)
peptide: XNTWQXFXLKNA
modifications: Ac; Pen-Pen disulfide; Phe(4-OMe); 2-Nal; hLeu; Lys(Ac); βAla; NH2
B2: Ac-[Pen]-NTWQ-[Pen]-[Phe(4-OMe)]-[2-Nal]-[Aib]-[Lys(Ac)]-NQ-NH2 (peptide)
peptide: XNTWQXFXXKNQ
modifications: Ac; Pen-Pen disulfide; Phe(4-OMe); 2-Nal; Aib; Lys(Ac); NH2
B3: Ac-[Pen]-NTWQ-[Pen]-[Phe[4-(2-aminoethoxy)]-[2-Nal]-[Aib]-[Lys(Ac)]-N-[βAla]-NH2 (peptide)
peptide: XNTWQXFXXKNA
modifications: Ac; Pen-Pen disulfide; Phe[4-(2-aminoethoxy)]; 2-Nal; Aib; Lys(Ac); βAla; NH2
B4: Ac-R-[Pen]-QTWQ-[Pen]-[Phe[4-(2-aminoethoxy)]-[2-Nal]-[Aib]-[Lys(Ac)]-NN-NH2 (peptide)
peptide: Ac-R[Pen]QTWQ[Pen][AEF][2Nal][Aib]K(Ac)NN-NH2
modifications: disulfide 2-7
SMILES: CC(=O)NCCCC[C@H](NC(=O)C(C)(C)NC(=O)[C@H](Cc1ccc2ccccc2c1)NC(=O)[C@H](Cc1ccc(OCCN)cc1)NC(=O)[C@H]1NC(=O)[C@H](CCC(N)=O)NC(=O)[C@H](Cc2c[nH]c3ccccc23)NC(=O)[C@H]([C@@H](C)O)NC(=O)[C@H](CCC(N)=O)NC(=O)[C@@H](NC(=O)[C@H](CCCNC(=N)N)NC(C)=O)C(C)(C)SSC1(C)C)C(=O)N[C@@H](CC(N)=O)C(=O)N[C@@H](CC(N)=O)C(N)=O
B5: Ac-(D)Asp-[Pen]-QTWQ-[Pen]-[Phe[4-(2-aminoethoxy)]-[2-Nal]-[Aib]-[Lys(Ac)]-NN-NH2 (peptide)
peptide: Ac-[dD][Pen]QTWQ[Pen][AEF][2Nal][Aib]K(Ac)NN-NH2
modifications: disulfide 2-7
SMILES: CC(=O)NCCCC[C@H](NC(=O)C(C)(C)NC(=O)[C@H](Cc1ccc2ccccc2c1)NC(=O)[C@H](Cc1ccc(OCCN)cc1)NC(=O)[C@H]1NC(=O)[C@H](CCC(N)=O)NC(=O)[C@H](Cc2c[nH]c3ccccc23)NC(=O)[C@H]([C@@H](C)O)NC(=O)[C@H](CCC(N)=O)NC(=O)[C@@H](NC(=O)[C@@H](CC(=O)O)NC(C)=O)C(C)(C)SSC1(C)C)C(=O)N[C@@H](CC(N)=O)C(=O)N[C@@H](CC(N)=O)C(N)=O
B6: Ac-E-[Pen]-QTWQ-[Pen]-[Phe[4-(2-aminoethoxy)]-[2-Nal]-[Aib]-[Lys(Ac)]-NN-NH2 (peptide)
peptide: Ac-E[Pen]QTWQ[Pen][AEF][2Nal][Aib]K(Ac)NN-NH2
modifications: disulfide 2-7
SMILES: CC(=O)NCCCC[C@H](NC(=O)C(C)(C)NC(=O)[C@H](Cc1ccc2ccccc2c1)NC(=O)[C@H](Cc1ccc(OCCN)cc1)NC(=O)[C@H]1NC(=O)[C@H](CCC(N)=O)NC(=O)[C@H](Cc2c[nH]c3ccccc23)NC(=O)[C@H]([C@@H](C)O)NC(=O)[C@H](CCC(N)=O)NC(=O)[C@@H](NC(=O)[C@H](CCC(=O)O)NC(C)=O)C(C)(C)SSC1(C)C)C(=O)N[C@@H](CC(N)=O)C(=O)N[C@@H](CC(N)=O)C(N)=O
B7: Ac-(D)Arg-[Pen]-QTWQ-[Pen]-[Phe[4-(2-aminoethoxy)]-[2-Nal]-[Aib]-[Lys(Ac)]-NN-NH2 (peptide)
peptide: Ac-[dR][Pen]QTWQ[Pen][AEF][2Nal][Aib]K(Ac)NN-NH2
modifications: disulfide 2-7
SMILES: CC(=O)NCCCC[C@H](NC(=O)C(C)(C)NC(=O)[C@H](Cc1ccc2ccccc2c1)NC(=O)[C@H](Cc1ccc(OCCN)cc1)NC(=O)[C@H]1NC(=O)[C@H](CCC(N)=O)NC(=O)[C@H](Cc2c[nH]c3ccccc23)NC(=O)[C@H]([C@@H](C)O)NC(=O)[C@H](CCC(N)=O)NC(=O)[C@@H](NC(=O)[C@@H](CCCNC(=N)N)NC(C)=O)C(C)(C)SSC1(C)C)C(=O)N[C@@H](CC(N)=O)C(=O)N[C@@H](CC(N)=O)C(N)=O
B8: Ac-[Pen]-QTWQ[Pen]-[Phe(4-CONH2)]-[Phe(3,4-OMe2)]-[α-MeVal]-[Lys(Ac)]-NN-NH2 (peptide)
peptide: Ac-[Pen]QTWQ[Pen][Phe(4-CONH2)][Phe(3,4-(OMe)2)][αMeV]K(Ac)NN-NH2
modifications: disulfide 1-6 (inferred)
B9: Ac-[2-Nal]-[Pen]-QTWQ-[Pen]-[Phe[4-(2-aminoethoxy)]-[2-Nal]-[Aib]-[Lys(Ac)]-NN-NH2 (peptide)
peptide: XXQTWQXFXXKNN
modifications: Ac; 2-Nal twice; Pen-Pen disulfide; Phe[4-(2-aminoethoxy)]; Aib; Lys(Ac); NH2
B10: Ac-[Pen]-NTWQ-[Pen]-[Phe[4-(2-aminoethoxy)]-[2-Nal]-[hLeu]-[Lys(Ac)]-N-[βAla]-NH2 (peptide)
peptide: XNTWQXFXLKNA
modifications: Ac; Pen-Pen disulfide; Phe[4-(2-aminoethoxy)]; 2-Nal; hLeu; Lys(Ac); βAla; NH2
B11: Ac-Phe-[Pen]-QTWQ-[Pen]-[Phe[4-(2-aminoethoxy)]-[2-Nal]-[Aib]-[Lys(Ac)]-NN-NH2 (peptide)
peptide: Ac-F[Pen]QTWQ[Pen][AEF][2Nal][Aib]K(Ac)NN-NH2
modifications: disulfide 2-7
SMILES: CC(=O)NCCCC[C@H](NC(=O)C(C)(C)NC(=O)[C@H](Cc1ccc2ccccc2c1)NC(=O)[C@H](Cc1ccc(OCCN)cc1)NC(=O)[C@H]1NC(=O)[C@H](CCC(N)=O)NC(=O)[C@H](Cc2c[nH]c3ccccc23)NC(=O)[C@H]([C@@H](C)O)NC(=O)[C@H](CCC(N)=O)NC(=O)[C@@H](NC(=O)[C@H](Cc2ccccc2)NC(C)=O)C(C)(C)SSC1(C)C)C(=O)N[C@@H](CC(N)=O)C(=O)N[C@@H](CC(N)=O)C(N)=O
B12: Ac-(D)Phe-[Pen]-QTWQ-[Pen]-[Phe[4-(2-aminoethoxy)]-[2-Nal]-[Aib]-[Lys(Ac)]-NN-NH2 (peptide)
peptide: Ac-[dF][Pen]QTWQ[Pen][AEF][2Nal][Aib]K(Ac)NN-NH2
modifications: disulfide 2-7
SMILES: CC(=O)NCCCC[C@H](NC(=O)C(C)(C)NC(=O)[C@H](Cc1ccc2ccccc2c1)NC(=O)[C@H](Cc1ccc(OCCN)cc1)NC(=O)[C@H]1NC(=O)[C@H](CCC(N)=O)NC(=O)[C@H](Cc2c[nH]c3ccccc23)NC(=O)[C@H]([C@@H](C)O)NC(=O)[C@H](CCC(N)=O)NC(=O)[C@@H](NC(=O)[C@@H](Cc2ccccc2)NC(C)=O)C(C)(C)SSC1(C)C)C(=O)N[C@@H](CC(N)=O)C(=O)N[C@@H](CC(N)=O)C(N)=O
B13: Hy-CADWVCYWHTFG-NH2 (peptide)
peptide: H-CADWVCYWHTFG-NH2
modifications: disulfide 1-6 (inferred)
B14: Hy-CADWMCYWHEYG-NH2 (peptide)
peptide: H-CADWMCYWHEYG-NH2
modifications: disulfide 1-6 (inferred)
B15: Hy-CTTWKCYWHQYG-NH2 (peptide)
peptide: H-CTTWKCYWHQYG-NH2
modifications: disulfide 1-6 (inferred)
B16: Hy-CADWVCY-[2-Nal]-HTFG-NH2 (peptide)
peptide: CADWVCYXHTFG
modifications: [2-Nal]; -NH2; disulfide
B17: Ac-CADWVCYWHEFG-NH2 (peptide)
peptide: Ac-CADWVCYWHEFG-NH2
modifications: disulfide 1-6 (inferred)
B18: Hy-CTDWKCYWHEFG-NH2 (peptide)
peptide: H-CTDWKCYWHEFG-NH2
modifications: disulfide 1-6 (inferred)
B19: Ac-CRDWVCYWHTFG-NH2 (peptide)
peptide: Ac-CRDWVCYWHTFG-NH2
modifications: disulfide 1-6 (inferred)
B20: Hy-CSNWECYWHHYG-NH2 (peptide)
peptide: H-CSNWECYWHHYG-NH2
modifications: disulfide 1-6 (inferred)
B21: Ac-CADWVCYWHNHSEGSG-NH2 (peptide)
peptide: Ac-CADWVCYWHNHSEGSG-NH2
modifications: disulfide 1-6 (inferred)
B22: Ac-CADWVCYWHFHQLRDA-NH2 (peptide)
peptide: Ac-CADWVCYWHFHQLRDA-NH2
modifications: disulfide 1-6 (inferred)
B23: Hy-CADWVCY-[1-Nal]-HTFG-NH2 (peptide)
peptide: CADWVCYXHTFG
modifications: [1-Nal]; -NH2; disulfide
B24: Hy-CPNWECYWHRFG-NH2 (peptide)
peptide: H-CPNWECYWHRFG-NH2
modifications: disulfide 1-6 (inferred)
B25: Ac-CADWVCYWHRSTGGQH-NH2 (peptide)
peptide: Ac-CADWVCYWHRSTGGQH-NH2
modifications: disulfide 1-6 (inferred)
B26: Hy-CSDWVCYWHVYG-NH2 (peptide)
peptide: H-CSDWVCYWHVYG-NH2
modifications: disulfide 1-6 (inferred)
B27: Hy-CRTWTCYWHVYG-NH2 (peptide)
peptide: H-CRTWTCYWHVYG-NH2
modifications: disulfide 1-6 (inferred)
B28: Ac-CADWVCYWHEHSERVG-NH2 (peptide)
peptide: Ac-CADWVCYWHEHSERVG-NH2
modifications: disulfide 1-6 (inferred)

Bridges are numbered along the chain shown (N, C = ends). [ ]: non-standard residue; d: D form. Phe(3,4-(OMe)2) = COc1ccc(C[C@H](N)C(=O)O)cc1OC; Phe(4-CONH2) = NC(=O)c1ccc(C[C@H](N)C(=O)O)cc1; 2Nal = N[C@@H](Cc1ccc2ccccc2c1)C(=O)O; AEF = NCCOc1ccc(C[C@H](N)C(=O)O)cc1; Pen = CC(C)(S)[C@H](N)C(=O)O; αMeV = CC(C)[C@](C)(N)C(=O)O; Aib = CC(C)(N)C(=O)O

One assay addresses T1, IL-23R on DB cells. Description: cell-based or functional assay.
With B1, the “pStat3 HTRF IC50” value is less than 10 nM.
Turning to B2, the “pStat3 HTRF IC50” value was less than 10 nM.
Same read-out and setting: then B3, with less than 10 nM.
Same read-out and setting: then B4, with less than 10 nM.
As to B5, the “pStat3 HTRF IC50” value was less than 10 nM.
Same read-out and setting: then B6, with less than 10 nM.
Still for that read-out and setting: then B7, with less than 10 nM.
In the case of B8, the “pStat3 HTRF IC50” value lay in the range of 10 to 25 nM.
Turning to B9, the “pStat3 HTRF IC50” value is less than 10 nM.
Same read-out and setting: then B10, with less than 10 nM; and B11, with less than 10 nM.
On the same count and under the same terms, then B12, with less than 10 nM.

The next assay addresses T2, IL23R_huFC. Description: IL23-IL23R competitive ELISA.
B13: the IC50 fell in the range of 0.5 to 1 µM.
The same measure, in the same setting: then B14, with 0.5 to 1 µM.
Still for that read-out and setting: then B15, with 0.5 to 1 µM; and B16, with 0.5 to 1 µM; and B17, with 0.5 to 1 µM.
Still for that read-out and setting: then B18, with 0.5 to 1 µM; and B19, with 0.5 to 1 µM.
With B20, the IC50 fell in the range of 0.5 to 1 µM.
On to B21, for which the IC50 was in the range of 0.5 to 1 µM.
With B22, the IC50 was 0.5 to 1 µM.
On the same count and under the same terms, then B23, with 0.5 to 1 µM.
In turn, B24 yielded an IC50 of 0.5 to 1 µM.
The same measure, in the same setting: then B25, with 0.5 to 1 µM; and B26, with 0.5 to 1 µM.
Molecule B27 showed an IC50 of 0.5 to 1 µM.
Same read-out and setting: then B28, with 0.5 to 1 µM.
